Reference: patent US9387267B2, “Iodine-containing radial-shaped macromolecular compounds, preparation method thereof and contrast media compositions for CT comprising the same” (KOREA RESEARCH INSTITUTE OF BIOSCIENCE AND BIOTECHNOLOGY, priority 2010, dated 2016)
Where two headings read alike, the source gives them in different places.

Columns and labels:
[1] = test system: Human epithelial cervical cancer (HeLa) cell line; format: cell-based; settings: HeLa cells
Procedure: Human epithelial cervical cancer (HeLa) cell line was obtained from American Type Culture Collection (ATCC, Manassas, Va.) and maintained at 37° C. under a 5% carbon dioxide (CO2) atmosphere in Dulbecco's modified eagle medium (DMEM, Gibco) supplemented with 10% fetal bovine serum (FBS), 50 U/mL penicillin, and 50 μg/mL streptomycin. Stock solutions of PAMAM-PEG2000-TIPAA conjugate Compounds 1c-4c were prepared by dissolving 10 mg of each vacuum-dried solid sample in 1.0 mL of deionized water (Millipore Milli-Q) to make a 10 mg/mL solution. Each stock solution was sonicated briefly to ensure homogeneity. Serial dilutions were carried out using serum-free DMEM to prepare samples of the following concentrations: 1, 5, 10, 50, 100, and 500 μg/mL. HeLa cells were seeded in a flat bottomed 96-well plate (Corning Costar, Cambridge, Mass.) at a density of 1×10^3 cells per well and incubated for 24 hours at 37° C. under a 5% CO2 atmosphere to allow cell attachment. Cells were treated with 100 μL of each dilution or 100 μL of serum-free DMEM (as a control) per well and incubated at 37° C. under a 5% CO2 atmosphere for 24, 48, or 72 hours. The formulations were replaced with serum-free DMEM containing 5 mg/mL 3-(4,5-dimethylthiazol-2-yl)-2,5-diphenyltetrazolium bromide (MTT) and cells were incubated for additional 4 hours. MTT was removed by aspiration and DMSO (100 μL) was added to each well to dissolve the formazan crystals [Mosmann, T., J. Immunol. Methods 1983, 65, 55-63]. Assays were carried out in quadruplicates.

[2] = format: physicochemical
Procedure: (§1) Sample solutions for in vivo injections as CT contrast agents were prepared by dissolving each PAMAM-PEG2000-TIPAA conjugate (Compound 1c, 2c, 3c, or 4c) at 250 mg/mL in the sterilized 20 mM Tris buffer (242 mg tromethamine and 10 mg EDTA dissolved in 100 mL of deionized water (Millipore Milli-Q), pH 7.4). The resulting solution was sonicated briefly to ensure homogeneity and stored at 4° C., if not used immediately. Before the injection to the animal, the contrast agent solutions were removed from the fridge, warmed to room temperature, and agitated by vortex.
The results of the viscosity (30° C.) and osmolality measurements of the CT contrast media solutions of the present invention are summarized in the following Table 1.
In Table 1, the values are presented as the mean±standard deviation. Five independent measurements were made for each compound under the same conditions, and the mean and standard deviation were calculated after excluding the highest and lowest values (i.e., 3 data).

[3] = Micro-CT 2D X-ray snapshot imaging of contrast media solutions in tubes
Procedure: Prior to the in vivo injection of CT contrast media (250 mg/mL) including Compounds 1c, 2c, 3c, or 4c of Examples 1 to 4 prepared in the Preparation Step, 2D X-ray snapshot images of these solutions and two commercially available CT contrast media each for human or animal application were obtained using micro-CT to compare their relative X-ray absorption in tubes under the same conditions as a preliminary evaluation.
Overall, eight 250 μL-tubes were prepared each containing the following: 250 μL each of four CT contrast media prepared in the Preparation Step, 250 μL of “Fenestra VC”, 250 μL of “Iobrix”, 250 μL of 20 mM Tris buffer solution (pH 7.4, 0.1 mg/mL EDTA included) as a negative control group, and one empty tube as a negative control group. These eight tubes were then arranged side by side in parallel on the imaging bed of a NFR Polaris-G90 in vivo micro-CT scanner (manufacturer: NanoFocusRay), and 2D X-ray snapshot images were taken [imaging parameters: 60 kVp, 60 μA, 500 ms exposure time, field of view (FOV) 80.00×83.71 mm^2, 1.4× magnification].

C57BL/6 mice = assay: In vivo micro-CT imaging evaluation
Procedure: Specifically, 6 to 8 weeks old healthy male C57BL/6 mice (Orient Bio, Korea) having the weight typically ranging from 15 g to 22 g were used as small animals. Each mouse was not fed water and food starting from approximately 12 hours before the injection of the contrast medium until the completion of CT imaging at 4 hours post-injection. The mice were fed water and food immediately after the completion of CT imaging at 4 hours post-injection. Before the injection of the contrast media, each mouse was anaesthetized in an induction chamber by administering 3% isoflurane in oxygen for about 5 minutes. Subsequently, the mouse was placed onto the imaging bed of a NFR Polaris-G90 in vivo micro-CT scanner (NanoFocusRay, Korea) lying in a prone position, and then the baseline (i.e., pre-contrast) scan was performed as a negative control group while being anesthesized by administering 1.5% isoflurane in oxygen [imaging parameters: 60 kVp, 60 μA, 500 ms exposure time, 360° scan angle, 600 scan number, 512 slices (i.e., image number); FOV: 80.00×83.71 mm^2 for low resolution whole-body imaging (1.4× magnification), 33.94×35.52 mm^2 for mid resolution chest and abdominal imaging (3.3× magnification), and 26.67×27.90 mm^2 for high resolution brain imaging (4.2× magnification)]. Next, the tail vein of the mouse was expanded by immersing the tail in a warm water for about 30 to 60 seconds while maintaining the mouse under anesthesia by administering 1.5% isoflurane in oxygen, and the corresponding amount of each contrast medium (15 mL/kg for the contrast media including the compounds of Examples 1 to 4, 10 mL/kg for “Fenestra VC”, and 2.5 mL/kg for “Iobrix”) was slowly injected into the tail vein of each mouse. Immediately after the injection of the contrast medium, the mouse was placed onto the imaging bed of a micro-CT scanner lying in a prone position, and the CT scan was performed at the corresponding resolution (low, mid, or high) while being anesthesized by administering 1.5% isoflurane in oxygen. […]

[4] = Dissolving the compound in buffer solution for a contrast medium; format: physicochemical; settings: concentration appropriate for CT imaging
Procedure: as §1

[5] = incubated for 72 hours, 500 μg/mL, MTT
[6] = 250 mg/mL in 20 mM Tris buffer pH 7.4, mean±standard deviation
[7] = 30° C., 250 mg/mL in 20 mM Tris buffer pH 7.4, mean±standard deviation
[8] = 250 μL in tube, 2D X-ray snapshot, 60 kVp, 60 μA, own media 250 mg/mL

G4 PAMAM-mPEG2000-TIPAA Conjugate [Example 4]
cell survival rate [1, 5]: 87.9%
Osmolality [2, 6]: 242.00 ± 4.08 mOsm/kg
Viscosity [2, 7]: 16.31 ± 0.61 mPa · s
X-ray transmission intensity [3, 8]: 827.0
thickness of contrast medium solution felt during the injection (C57BL/6 mice; during injection): felt thicker than Compound 2c of Example 2 or Compound 3c of Example 3
ease of dissolving in a buffer solution [4]: more difficult to dissolve

G2 PAMAM-mPEG2000-TIPAA Conjugate [Example 2]
cell survival rate ([1]; human, 72 h, 500 µg/mL): 88.4%
Osmolality ([2]; pH 7.4): 233.50 ± 9.75 mOsm/kg
Viscosity ([2]; pH 7.4): 16.47 ± 0.80 mPa · s
X-ray transmission intensity [3]: 838.0

G1 PAMAM-mPEG2000-TIPAA Conjugate [Example 1]
cell survival rate [1, 5]: 88.5%
Osmolality [2, 6]: 464.75 ± 3.59 mOsm/kg
Viscosity [2, 7]: 15.32 ± 0.39 mPa · s
X-ray transmission intensity [3, 8]: 904.5
amount found in the kidney (C57BL/6 mice; mice, images at 1 hour after injection): a considerable amount thereof was found in the kidney within a relatively short period of time
excretion (route and rate) (C57BL/6 mice; mice, tail vein injection, whole-body CT images): mostly through kidney to bladder

G3 PAMAM-mPEG2000-TIPAA Conjugate [Example 3]
cell survival rate ([1]; human, 72 h, 500 µg/mL): 88.4%
Osmolality ([2]; pH 7.4): 225.75 ± 1.26 mOsm/kg
Viscosity ([2]; pH 7.4): 16.15 ± 0.53 mPa · s
X-ray transmission intensity [3]: 826.5
